The source of these data is patent US20200079861A1 (AGENUS, published 2020).

Residue numbers refer to the chain shown, from its start. Names and notes keep the numbering of the source.

The target of one experiment is T1, human OX40 (on cells) (human, UniProt P43489 29-277).
T1 construct: also called huOX40; TNFRSF4
T1 sequence: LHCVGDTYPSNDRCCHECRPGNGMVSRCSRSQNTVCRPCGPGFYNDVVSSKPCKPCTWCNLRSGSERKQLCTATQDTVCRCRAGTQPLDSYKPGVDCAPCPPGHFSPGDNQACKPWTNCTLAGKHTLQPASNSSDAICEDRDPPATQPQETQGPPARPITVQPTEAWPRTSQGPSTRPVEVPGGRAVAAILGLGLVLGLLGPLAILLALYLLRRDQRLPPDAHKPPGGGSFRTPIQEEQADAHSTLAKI
Put plainly: flow cytometry on Jurkat cells expressing OX40 only. The method, then:
(§1) Hut102 cells (human T cell lymphoma, ATCC) were incubated for 72 hours in RPMI media, supplemented with 1 μg/ml phytohaemagglutinin (PHA) and 10% heat-inactivated FBS, at 37° C. and 5% CO₂ to induce GITR and OX40 expression. Cells ectopically expressing GITR or OX40 were generated by transduction of lentiviral vectors (EF1a promoter) into Jurkat cells. Stable clones were generated via single-cell sorting (FACS ARIA Fusion). Expression was verified by flow cytometry. For binding analysis, stable Jurkat cells or activated Hut102 cells were incubated with test antibodies (12-point dose titration, 0.01-10,000 ng/ml) diluted in FACS buffer (PBS, 2 mM EDTA, 0.5% BSA, pH 7.2) for 30 minutes at 4° C. Samples were washed two times in FACS buffer and then incubated with APC-conjugated mouse anti-human kappa detection antibody (Life Technologies, HP6062) for 30 minutes at 4° C. Samples were then washed two times and analyzed using the LSRFortessa flow cytometer (BD Biosciences). FACS plots were analyzed using a combination of FACS DIVA and WEHI Weasel software. Data were plotted with Graphpad Prism software.
A general note: A flow cytometer gives signals particle by particle.

Experiment [1] concerns the target T2, GITR antigen (R&D systems, disulfide-linked homodimer; 689-GR) (human, UniProt Q9Y5U5 26-161, R-PE labeled in the suspension array assay; unlabeled and amine-coupled to the chip in SPR).
T2 construct: also called R-PE labeled GITR antigen
T2 sequence (looked up): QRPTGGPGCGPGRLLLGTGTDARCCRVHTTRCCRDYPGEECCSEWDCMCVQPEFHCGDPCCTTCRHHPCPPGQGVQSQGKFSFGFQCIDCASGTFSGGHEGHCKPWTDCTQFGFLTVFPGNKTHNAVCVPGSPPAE
Put plainly: Luminex suspension array, m6C8 captured on beads, R-PE labeled GITR antigen; data not shown. The method, then:
(§2) The bead mixture and the antigen/antibody mixture were mixed 1:1 (20 μl from each) and incubated for one additional hour under shaking conditions (20° C., 650 rpm). Directly before the measurement, 40 μl of assay buffer was added to each well and analysis was performed using a Luminex® 200 system (Millipore) and a readout of 100 beads in 48 μl sample volume. Binding was determined using the MFI values of the non-competed control (100% binding, only assay buffer as competing compound).

The target in experiment [2] is T3, human GITR D60A mutant (on 1624-5 cells) (human, UniProt Q9Y5U5 26-241).
T3 chain: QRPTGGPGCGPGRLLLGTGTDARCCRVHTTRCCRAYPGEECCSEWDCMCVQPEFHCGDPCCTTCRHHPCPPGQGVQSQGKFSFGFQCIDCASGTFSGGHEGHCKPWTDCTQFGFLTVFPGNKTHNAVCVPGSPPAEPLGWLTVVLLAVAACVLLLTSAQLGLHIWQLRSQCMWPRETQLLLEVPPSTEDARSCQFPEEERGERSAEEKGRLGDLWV
Put plainly: flow cytometry on 1624-5 cells, 2 µg/ml antibody, MFI ratio to polyclonal antibody, mutant versus wild type. The method, then:
(§3) An average MFI ratio (“AMFI ratio”) was calculated based on the individual MFI ratios for all the mutants. […] An individual MFI ratio that is between 30% and 60% of the AMFI ratio is represented by “+/−” in FIG. 10A. An individual MFI ratio that is below 30% of the AMFI ratio is represented by “−” in FIG. 10A.
(§4) All the mean fluorescence intensity (MFI) values were calculated as the mean of two measurements.

The target in experiment [3] is T4, human GITR G63A mutant (on 1624-5 cells) (human, UniProt Q9Y5U5 26-241).
T4 chain: T3 chain with A35D, G38A
The description is as above. The method, then:
as §3, §4

Experiment [4] concerns the target T2, GITR antigen (R&D systems, …). Put plainly: Luminex suspension array, competitor at 20 µg/ml pre-incubated with R-PE labeled GITR antigen; captured antibody 231-32-15. The method, then:
as §2

Experiment [5] deals with T5, V1M/Q62P/S63G cynomolgus GITR (on 1624-5 cells) (cynomolgus, UniProt Q9Y5U5 26-241 (human entry)).
T5 construct: V1M lies in the signal peptide; also called mutant cynomolgus GITR V1M/Q62P/S63G
T5 chain: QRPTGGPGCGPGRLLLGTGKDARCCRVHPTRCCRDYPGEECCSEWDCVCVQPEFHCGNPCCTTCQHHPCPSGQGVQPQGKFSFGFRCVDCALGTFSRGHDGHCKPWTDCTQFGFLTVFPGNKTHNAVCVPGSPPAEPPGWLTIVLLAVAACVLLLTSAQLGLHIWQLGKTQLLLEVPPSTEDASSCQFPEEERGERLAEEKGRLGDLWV
The experiment can be described thus: flow cytometry on 1624-5 cells, 2 µg/ml antibody. The method, then:
(§5) After washing, the cells were incubated with a secondary anti-IgG antibody if necessary for detection (APC conjugated; BD Cat no. 109-136-097) diluted in 100 μl FACS buffer (PBS+2% FCS) for 20 min at 4° C. The cells were then washed and acquired using a flow cytometer (BD Biosciences). The mean fluorescence intensity (MFI) value of the tested monoclonal antibody was divided by the MFI value of the polyclonal antibody, generating an MFI ratio (monoclonal antibody/polyclonal antibody) for individual GITR alanine mutants. An average MFI ratio (“AMFI ratio”) was calculated based on the individual MFI ratios for all the mutants. […] An individual MFI ratio that is between 30% and 60% of the AMFI ratio is represented by “+/−” in FIG. 10A. An individual MFI ratio that is below 30% of the AMFI ratio is represented by “−” in FIG. 10A.
(§6) As further evidence for the binding characteristics of the anti-GITR antibodies, the binding of the antibodies to cynomolgus GITR was compared. The immature protein of cynomolgus GITR comprises the amino acid sequence of SEQ ID NO:44.

The target of experiment [6] is T6, V1M cynomolgus GITR (on 1624-5 cells) (cynomolgus, UniProt Q9Y5U5 26-241 (human entry)).
T6 chain: T5 chain with P37Q, G38S
Put plainly: flow cytometry on 1624-5 cells. The method, then: as §5, §6

In another experiment the target is T7, human GITR (on cells) (human, UniProt Q9Y5U5 26-241).
T7 construct: Swiss-Prot Q9Y5U5-1 is printed; also called huGITR; wild type human GITR
T7 sequence: T3 chain with A35D
Put plainly: flow cytometry on Jurkat cells expressing GITR only. The method, then: as §1

Experiment [7] concerns the target T2, GITR antigen (R&D systems, …). The experiment can be described thus: SPR (BIAcore), GITR antigen immobilized on the chip, antibody at 300 nM. The method, then: Flow cell 2 contained GITR antigen in low density (667 RU), medium density was assessed in flow cell 3 (1595 RU) and in flow cell 4, high density was achieved (4371 RU). In flow cell 1, ovalbumin (1289 RU, Pierce ThermoFisher 77120) was immobilized for reference. Immobilization was performed according to a standard protocol from the manufacturer (GE Healthcare) for amine coupling (activation of surface with 0.4 M EDC and 0.1 M NHS, GE Healthcare Amine coupling kit, BR-1000-50). […] Afterwards anti-GITR antibodies were run through the different surfaces at a concentration of 300 nM (45 μg/ml) for 240 seconds at 5 μl/min. […] A dissociation time of 60 seconds was included before adding the competing antibody (300 nM, 5 μl/min).
(SPR reads the build-up and loss of mass on a sensor chip optically.)

B1: pab2049 (antibody, human IgG1, V domains shown)
VH: EVQLVESGGGLVQPGGSLKLSCAASGFTFSGSAMHWVRQASGKGLEWVGRIRSKANSYATAYAASVKGRFTISRDDSKNTAYLQMNSLKTEDTAVYYCTSGIYDSSGYDYWGQGTLVTVSS
VL: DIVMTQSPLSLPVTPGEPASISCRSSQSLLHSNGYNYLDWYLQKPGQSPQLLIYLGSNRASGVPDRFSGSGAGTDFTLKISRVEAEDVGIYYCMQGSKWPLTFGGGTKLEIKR
notes: also called bivalent monospecific antibody pab2049; pab2049w (same chains without light chain T109S)
With B1, the binding result with human OX40 (on cells) was “binds”.

B2: m6C8 (antibody, V domains shown)
VH: QVTLKESGPGILKPSQTLSLTCSFSGFSLSTSGMGVGWIRQPSGKGLEWLAHIWWDDDKYYNPSLKSQLTISKDTSRNQVFLKITSVDTADAATYYCARTRRYFPFAYWGQGTLVTVSS
VL: DIVMTQSQKFMSTSVGDRVSVTCKASQNVGTNVAWYQQKPGQSPKALIYSASYRYSGVPDRFTGSGSGTDFTLTINNVHSEDLAEYFCQQYNTDPLTFGAGTKLEIK
notes: Generated from the variable regions of antibody 6C8 of WO 2006/105021; also called murine antibody 6C8
B2: the binding result in experiment [1] is “binds”. The “percentage of reduction in binding relative to wild type GITR” value in experiment [2] was found to be 10%. Also, the “percentage of increase in binding relative to wild type GITR” value in experiment [3] was determined as 62%.

B3: pab1876 (antibody, human IgG1, V domains shown)
VH: QVQLVQSGAEVKKPGASVKVSCKGSGYTFTDYAMYWVRQAPGQGLEWIGVIRTYSGDVTYNQKFKDRATMTVDKSISTAYMELSRLRSDDTAVYYCAKSGTVRGFAYWGQGTLVTVSS
VL: DIVMTQSPDSLAVSLGERATINCKSSQSLLNSGNQKNYLTWYQQKPGQPPKLLIYWASTRESGVPDRFSGSGSGTDFTLTISSLQAEDVAVYHCQNDYSYPYTFGQGTKLEIKR
notes: also called bivalent monospecific antibody pab1876; pab1876w (same chains without light chain T109S)
As for B3, the binding result in experiment [4] is on record as “binds”; in [5] it was “binds”; in [6] it was “no binding (tested: 2 µg/ml)”; with human GITR (on cells), “binds”. The “percentage of reduction in binding relative to wild type GITR” value in experiment [3] is 59%.

B4: pab1875 (antibody, V domains shown)
VH: B3 VH
VL: DIVMTQSPPTLSLSPGERVTLSCKSSQSLLNSGNQKNYLTWYQQKPGQAPRLLIYWASTRESGIPARFSGSGSGTDFTLTISSLQPEDFAVYHCQNDYSYPYTFGQGTKLEIK
On to B4, for which, in experiment [4], the binding result is listed as “binds”.

B5: chimeric parental 231-32-15 antibody (antibody, V domains shown)
VH: QVQLLQSGTELVRPGVSVKISCKGSGYTFTDYAMYWVKQSHAKSLEWIGVIRTYSGDVTYNQKFKDKATMTVDKSSSIAYMELARLSSEDSAIYYCAKSGTVRGFAYWGQGTLVTVSS
VL: DIVMTQSPSSLTVTAGEKVIMSCKSSQSLLNSGNQKNYLTWYQQKPGQPPKLLIYWASTRESGVPDRFTGSGSGTDFTLTISSVQAEDLAVYHCQNDYSYPYTFGGGTKLEIK
notes: Chimeric antibody
As for B5, the binding result is reported as “binds” in experiment [5], “binds” in experiment [7] and “no binding (tested: 2 µg/ml)” in [6]. Besides, the entries for the “percentage of reduction in binding relative to wild type GITR” value in experiment [2] and in experiment [3] were 82% and 37%, respectively.
